Assay results as given in the supplement of paper PMC12636428.

System: Saccharomyces cerevisiae
Experiment: transcriptional activation domain activity (GFP:mCherry ratio, weighted mean of sorted bins, harmonized to initial dataset scale) (arbitrary fluorescence ratio units); higher = stronger transcriptional activation
Conditions: beta-estradiol 1 µM; induction time 4 h
In short: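 In diploid yeast carrying a GFP reporter, barcoded protein tiles fused to an estradiol-inducible synthetic transcription factor were integrated at the URA3 locus. Cultures diluted 1:5 into SC with 1 uM beta-estradiol were kept at 30 °C for 4 hours, then sorted by GFP:mCherry ratio into 8 bins before barcode sequencing. Tiles with under 50 reads were excluded. The activation activity reported here is the read-weighted mean of bin median fluorescence, averaged across barcodes and linearly rescaled to the initial dataset.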

IRGNMSGSEFHWTCKSLGLCGILVRCLAWYCISKMYVLPTCYRRMYCCEVYKD
transcriptional activation domain activity: 49700

MHASFIFLSSTSGVIHTYILYLDLVAYFLLSLGGFVLIIGFWRWGFCCFFLPS
transcriptional activation domain activity: 69100

AIEEIRQDNESRQRENRVVYDRTDKDNERNESLNHQQGIRLVIIDSIHQPVTT
transcriptional activation domain activity: 45700

HVYGPTLVVHRYSLPLLFYYFVLFMFLESLPRLFRCISLFFQLAQLLMLLVPI
transcriptional activation domain activity: 34100

IIFLIMRAMVGLQVLNENVIEKILMYLKLQWVAVFIYWQVLWLVKFSLLIFFK
transcriptional activation domain activity: 75400

QRTNEDLDVDYVPYDHMGISFWDHLDPSRIAVPSHHNIFRIVVWLFFLVVYSQ
transcriptional activation domain activity: 53700

RFLSFLLLLLVFFYPFVFFVLALVLCTFWSLFPSNTPLHSLVCRLQLLHPFVF
transcriptional activation domain activity: 41400

LHQRVHEQGLYDCHYSNYFIDLLRYLVLLGLFVVSFYKEYYLVSSCFLGCFWH
transcriptional activation domain activity: 57400

IWSFVILLRETVLCGSIVLAISATSDYFYYGLWTFPPYQWLNFNLTQSLAVFY
transcriptional activation domain activity: 66800

GGKKKKAAAAVLETETEGEGEKENKSAEKGKAGSNGGGKKGKGKKGANGVANG
transcriptional activation domain activity: 23400

SPTLSHCTDYRTPALAYNILITCSLFLLFRPKPLILFWCLVCIGFWHVALFSQ
transcriptional activation domain activity: 52500

MFMDTLLFVFMHYGWTFFLNCCLWCFMISLCFWYVKFCLPIGCYILILCMWQG
transcriptional activation domain activity: 66200

MLLTLLLLYILRRCAHTSYIFFSHSGFDFGHLIWGWVSCRLLTFWFLLYSSLL
transcriptional activation domain activity: 33100

MSNLELMRFLTKPDVKLELSVKIDDIYWNCIFSLRYREMYTASLLRYMVFFLR
transcriptional activation domain activity: 52700

RQLVLLQKAEVDLFYMTVALILICALCAGLCLNIAIQARGTTLLTNWTQLEFC
transcriptional activation domain activity: 58300

YEASNHPEFDLNADVGLVIQVLEQTHSHTPIKLCSLIVKLQVVSGFLSYLESD
transcriptional activation domain activity: 32800

CLAGKDLFGTLFGLRVIIQVVGILMSIPHTLVVTTRWIRRMLLVYFLDQLYYT
transcriptional activation domain activity: 80600

AVWPLSERSKFHNIISVDLSDLGDVINPDVGTITELVCFDESIADLYPVGLDS
transcriptional activation domain activity: 122000

AAEEAVKVAVVVEGAKKRRGRPRKDAVDEEGTVLGALADATNTQTATAAPVPM
transcriptional activation domain activity: 24300

MESHSFLPICRYFWGVMPQLMPSFYLNLLSWFSLCFIVFHWLHTVVIFPYLLL
transcriptional activation domain activity: 49200

IVCRTEKTSHMLIDFSEHLRINVYVLGATFVRLVHLLKVKIPLVDPVLYIVRF
transcriptional activation domain activity: 59900

SQKKHCELCKTPFRFTKLYSPSMPKTLPVYVFLSHVAKYLLRNLLVEARAMLV
transcriptional activation domain activity: 42900

ALRRRTTDDGRLPREDLVHSEISVAVVSSPLSFASRFSPTPAVAVLVTALPVV
transcriptional activation domain activity: 80600

YSIYVYRYFLYQWGDLCYMALHPTTSSLIGVIVCKLEPHRSGPFRGYIAMLAV
transcriptional activation domain activity: 42600

RTSRHLTLLFWSPLLFFSILLLLPIFLPLFLRFLLLWFPILLLLPLLCFLLLW
transcriptional activation domain activity: 13000

AVPGEVTEAEANGEAKAEGAAATTDEAAKPKKKKKSKSRKAKKTEDGTAPEEG
transcriptional activation domain activity: 37900

GGAAAKESESKSSASTSKASISKGKDEQGAGASGGNKKGGGGKATTKRGRKKG
transcriptional activation domain activity: 29400

YPKALPFYGKILGYMTSIYDTIARLAFLKTLQPQGPLDYMLWLVIMTATRIFY
transcriptional activation domain activity: 53800

TYPVSMPFDGTLNLDLDMCFLDVTNTDINFSDIFDPNFQFGSYGFPLSLDYDI
transcriptional activation domain activity: 139000

MLRITLRVSIFLGYFPLFGWCAGFCFFRPFFFFFFACFRARWAFFFPSIRFFY
transcriptional activation domain activity: 37300

DAPAQPEPADDGEEAEEVDEPKGKKGKGGGKKGGGKGKGGKGKEKKADKAAAE
transcriptional activation domain activity: 29400

MRWFFLLFWVFLSFFLSLQFFSILSFVCGSLACSISLLCRFSLRGAGFCWLGG
transcriptional activation domain activity: 47600

KTKEGAAKNTKKSGERGKEKGLAGAKSKKSPINNSVKGKKSPSTKKTVKKAGK
transcriptional activation domain activity: 31600

GCLLTFPNKIDWATLVIILFSETFTICLLLIKGFYWVISSAHKVGDRVLYYVA
transcriptional activation domain activity: 50800

ILALSWGGGLYPWASYHVLVPLILGFCILVVFALYEIYMPLKYPLIPMSLFLN
transcriptional activation domain activity: 40400

VKPRPLPLPVLIAKALREKGLVYFFRSVRVSGSGTAEVVRGKWYMNFLPTLAR
transcriptional activation domain activity: 73200

LLRQQLVYTNHIYLYYFAIISNTLIRFIWILYIPARGPDIILRTFIAALFEML
transcriptional activation domain activity: 54200

AKQGEDDAEKSKRGRKRKESETLEANGEEAGDDAEPAAKKAKPASKPASKAAA
transcriptional activation domain activity: 30100

FRSGHSFPRKFGFCVEFTYNFISLLFNWFGLVSASIFFFCFSLFLFFVFYVLT
transcriptional activation domain activity: 25000

EKDKENDKGEKGEGEKKGENRRGRRRGGRGRGGGGDKDKEKEKDGGGGGGAKR
transcriptional activation domain activity: 47000

MQSGHLFRLFGIAKTVLFFFSSVSCSLLHFLFSSFPFPIFPFVLSICYVFHFF
transcriptional activation domain activity: 46600

MMLVSSRSFLYWYGVSLTLLLLSLEFVWSFLLFFTWLVTLSLFPFLSSVSHCH
transcriptional activation domain activity: 60200

EDRSEKRKRKRDDEVEPKKSKSKWKPEEKSDEDPKSTPKSNGGKRRRPERPEK
transcriptional activation domain activity: 27300

VLKALWSFAYTFGLFIFCNGSIYYFVARIFGSYYRVLDSPIVGFRWSNIHLFL
transcriptional activation domain activity: 57100

LVANDIIMGIALGSHIIENSELAATWVDTIFSTWSVDGLRRMIVWLMGWPGGL
transcriptional activation domain activity: 27800

PSSLVAQGQCAVAGDDVLEALAIRGIDFKLYAGILLLIALVYRLLLYIVLVFK
transcriptional activation domain activity: 66100

YTRCEVIYLKRSLPSYFGPSMLQFTILFILIVTNSIVLLGLFLLLCRTLWGLA
transcriptional activation domain activity: 19500

FFLALSFRDALAATSMMNLNNCMADPLLGKWVCQLLPSLTSILMFTVELVLFF
transcriptional activation domain activity: 63800

ITNGLYTGLGIKVPITKLQKYTPLEVALHSWRLVYMYFWSSFCLLIVCLIIFL
transcriptional activation domain activity: 65800

EQKVPEGVKDSWDASSDEEEEETAVKPSKPAAAANGKSPSAPAKAATHAKPAP
transcriptional activation domain activity: 23500

MAKKASGSADKKTADKGDKKGKAKPTADDGEDKQSKGKGALKAATAVNVRHIL
transcriptional activation domain activity: 44600

FVYLILTILPCLDHRCPYRTPMSSIWWYCWHTSLGFFALCARWLLNLLHGILV
transcriptional activation domain activity: 50200

LLLVHGRWSYQRVADMHSNFFYKNVIWTFALFWYLPFNSFDATYLYQYTFILL
transcriptional activation domain activity: 47600

LLSLPNYFGIVFQVLKPEITTMYIAALDLCNLHTLYKAILFTLLALTWLILVF
transcriptional activation domain activity: 50500

FTQFEDTWNLDVTPNFLPDLNDFDMERLDFSLADDFAQSIASFPYSPPETLLI
transcriptional activation domain activity: 149000

SLLMLLFIRGWFSYLIAVVSISGVLVLHMLYFLLQWRLKYILWLLLHCSIAIP
transcriptional activation domain activity: 79500

FGFVFFVASLENGHYKFQFTNFAWTHMALYLIVCQAHFVMNNIFEGMIWFFLP
transcriptional activation domain activity: 66100

EYVSLCRTFATREMLKVAIFANIFSKMTRTLACLFVTRISSHVNRLRALLQPI
transcriptional activation domain activity: 61700

VKKKGGSGGIDAGDIWGCNRRGSNFVEVRSMLAKEGGRLLVNVLRDMIDGTVR
transcriptional activation domain activity: 65900

DEEDIWNYLPSSSSQQEDSSRALKKNTNSEKANIQAKNDETYLFLQDQDESAD
transcriptional activation domain activity: 46700

MYKSYIFFYLPLLFNCFIMSFFFLYEMPFFYLGRMLHFLLSLISGSWFFFYLF
transcriptional activation domain activity: 50900
